Measurements from PMC10469194.

Biological target: REGN10987-based FabH3 heavy chain (VH - GS-G4 linker - IgG1 CH3 K392D, K409D)
Experiment: pull-down; co-purification from the soluble E. coli lysate by cobalt IMAC on the His6 tag of the heavy chain, native conditions; SDS-PAGE

REGN10987-based FabH3 heavy chain (VH - GS-G4 linker - IgG1 CH3 K392D, K409D), sequence (heavy, as listed by the source): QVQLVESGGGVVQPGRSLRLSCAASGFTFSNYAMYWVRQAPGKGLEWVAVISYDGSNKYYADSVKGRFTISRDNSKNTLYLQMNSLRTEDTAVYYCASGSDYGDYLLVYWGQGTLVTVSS

- stoichiometry N: 1
Substance: REGN10987-based FabH3 light chain (VL - GS-G4 linker - IgG1 CH3 E356K, D399K)
